Among the targets are GGC_13; GGC_5; GGC_6.
Experiment in all cases: SPR

B1: ghrelin receptor ICL3-specific antibody (antibody, V domains shown)
VH: EVQLQQSGAELVRPGASVKLSCKASGYTFTDYEMHWVKQTPVHGLEWIGAIDPETGGTVYNQKFKGKATLTADISSTTAYMELRSLTSEDSAVYFCISEDIDESKDYWGQGTTLTVSS
VL: DIVMTQSPSSLAVSAGEKVTLSCKSSQSLFNSRTRKNYLAWYQQKPGLSPTLLIYWASTRKSGVPDRFTGSGSGTDFTLTITSVQAEDLAVYYCKQSYYLRTFGGGTKLEIK
One may read the Kd as the concentration at which binding is half-saturated. A higher Kd goes with weaker binding. For B1, the Kd with GGC_13 was 406 nM; in the test with GGC_5, 415 nM; with GGC_6, 789 nM.
